This test deals with T1, Human PTK7/CCK4 Protein, His Tag, Acro Biosystems PT7-H52H3 (human, UniProt Q13308 31-704).
T1 construct: bought protein; also called Human PTK7 Protein, His Tag, Acro Biosystems; not shown: His tag
T1 sequence: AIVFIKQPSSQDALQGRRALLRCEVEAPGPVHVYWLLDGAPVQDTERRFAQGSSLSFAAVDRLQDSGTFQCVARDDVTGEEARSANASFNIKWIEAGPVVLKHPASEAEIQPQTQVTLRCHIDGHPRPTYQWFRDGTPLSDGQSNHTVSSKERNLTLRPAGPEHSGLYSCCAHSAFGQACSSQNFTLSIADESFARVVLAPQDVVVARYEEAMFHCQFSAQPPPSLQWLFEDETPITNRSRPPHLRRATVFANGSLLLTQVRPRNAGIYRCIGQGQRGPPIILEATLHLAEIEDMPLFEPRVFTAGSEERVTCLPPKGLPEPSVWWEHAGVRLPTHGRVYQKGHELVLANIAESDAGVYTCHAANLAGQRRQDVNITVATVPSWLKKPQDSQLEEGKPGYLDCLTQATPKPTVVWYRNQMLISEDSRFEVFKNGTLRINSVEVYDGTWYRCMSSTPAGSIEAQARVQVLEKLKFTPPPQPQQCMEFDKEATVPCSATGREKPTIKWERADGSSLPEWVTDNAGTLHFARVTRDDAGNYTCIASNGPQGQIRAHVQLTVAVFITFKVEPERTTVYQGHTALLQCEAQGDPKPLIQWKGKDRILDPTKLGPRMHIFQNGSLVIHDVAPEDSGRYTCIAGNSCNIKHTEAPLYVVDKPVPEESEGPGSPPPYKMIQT
Description: BLI, antibody on anti-human Fc sensor, 50 nM PTK7. In general terms: In BLI a coated tip is dipped into the sample, and binding shifts an interference pattern.

B1: MYT11103 (antibody, V domains shown)
VH: EVQLVESGGGLVQPGGSLRLSCTASGHSLSTYAMSWVRQAPGKGLEWVGMIYINDNTYYASWAKGRFTISRDTSKNTVYLQMNSLRAEDTAVYFCARDIGISYYIGVSLWGQGTLVTVSS
VL: EIVMTQSPSTLSASVGDRVIITCQASQSIGTRLSWYQQKPGKAPKLLIYGASKLATGVPSRFSGSGSGAEFTLTISSLQPDDFATYYCLGEYSYTTTDGIAFGQGTKLTVL
notes: IgG
Turning to B1, the binding result was “binds”.

B2: MYT11105 (antibody, V domains shown)
VH: EVQLVESGGGLVQPGGSLRLSCTASGFSHSTYAMSWVRQAPGKGLEWVGMIYINDNTYYASWAKGRFTISRDTSKNTVYLQMNSLRAEDTAVYFCARDIGISYYIGVSLWGQGTLVTVSS
VL: EIVMTQSPSTLSASVGDRVIITCQASQSIGTRLSWYQQKPGKAPKLLIYGASKLATGVPSRFSGSGSGAEFTLTISSLQPDDFATYYCLGEYSYTTTDGIAFGQGTKLTVL
notes: IgG
For B2, the binding result is on record as “binds”.

B3: MYT10997 (antibody, V domains shown)
VH: EVQLVESGGGLVQPGGSLRLSCTASGFSLSSYAMGWVRQAPGKGLEWVGFINAGGNTYYANWAKGRFTISRDTSKNTVYLQMNSLRAEDTAVYFCARRYSRASGWYDLWGQGTLVTVSS
VL: EIVMTQSPSTLSASVGDRVIITCQASQSHSSYLAWYQQKPGKAPKLLIYAASTLASGVPSRFSGSGSGAEFTLTISSLQPDDFATYYCQSYSYSSGIDYGDVFGQGTKLTVL
notes: IgG
For the molecule B3, the binding result is given as “binds”.

B4: MYT11023 (antibody, V domains shown)
VH: EVQLVESGGGLVQPGGSLRLSCTASGFSLSSYAMGWVRQAPGKGLEWVGFINAGGNTYYANWAKGRFTISRDTSKNTVYLQMNSLRAEDTAVYFCARRYSRASGWYDLWGQGTLVTVSS
VL: EIVMTQSPSTLSASVGDRVIITCQASQSISSYLAWYQQKPGKAPKLLIYAASTLASGVPSRFSGSGSGAEFTLTISSLQPDDFATYYCQSYSYSSGIDYGDHFGQGTKLTVL
notes: IgG
B4: the binding result was “binds”.

B5: MYT10999 (antibody, V domains shown)
VH: EVQLVESGGGLVQPGGSLRLSCTASGFSLSSYAMGWVRQAPGKGLEWVGFINAGGNTYYANWAKGRFTISRDTSKNTVYLQMNSLRAEDTAVYFCARRYSRASGWYDLWGQGTLVTVSS
VL: EIVMTQSPSTLSASVGDRVIITCQASQSISHYLAWYQQKPGKAPKLLIYAASTLASGVPSRFSGSGSGAEFTLTISSLQPDDFATYYCQSYSYSSGIDYGDVFGQGTKLTVL
notes: IgG
As to B5, the binding result is given as “binds”.

B6: MYT11010 (antibody, V domains shown)
VH: EVQLVESGGGLVQPGGSLRLSCTASGFSLSSYAMGWVRQAPGKGLEWVGFINAGGNTYYANWAKGRFTISRDTSKNTVYLQMNSLRAEDTAVYFCARRYSRASGWYDLWGQGTLVTVSS
VL: EIVMTQSPSTLSASVGDRVIITCQASQSISSYLAWYQQKPGKAPKLLIYAASTLASGVPSRFSGSGSGAEFTLTISSLQPDDFATYYCHSYSYSSGIDYGDVFGQGTKLTVL
notes: IgG
Take B6: the binding result is “binds”.

B7: MYT11014 (antibody, V domains shown)
VH: EVQLVESGGGLVQPGGSLRLSCTASGFSLSSYAMGWVRQAPGKGLEWVGFINAGGNTYYANWAKGRFTISRDTSKNTVYLQMNSLRAEDTAVYFCARRYSRASGWYDLWGQGTLVTVSS
VL: EIVMTQSPSTLSASVGDRVIITCQASQSISSYLAWYQQKPGKAPKLLIYAASTLASGVPSRFSGSGSGAEFTLTISSLQPDDFATYYCQSYSHSSGIDYGDVFGQGTKLTVL
notes: IgG
B7: the binding result is listed as “binds”.

B8: MYT11013 (antibody, V domains shown)
VH: EVQLVESGGGLVQPGGSLRLSCTASGFSLSSYAMGWVRQAPGKGLEWVGFINAGGNTYYANWAKGRFTISRDTSKNTVYLQMNSLRAEDTAVYFCARRYSRASGWYDLWGQGTLVTVSS
VL: EIVMTQSPSTLSASVGDRVIITCQASQSISSYLAWYQQKPGKAPKLLIYAASTLASGVPSRFSGSGSGAEFTLTISSLQPDDFATYYCQSYHYSSGIDYGDVFGQGTKLTVL
notes: IgG
Turning to B8, the binding result is “binds”.

B9: MYT11004 (antibody, V domains shown)
VH: EVQLVESGGGLVQPGGSLRLSCTASGFSLSSYAMGWVRQAPGKGLEWVGFINAGGNTYYANWAKGRFTISRDTSKNTVYLQMNSLRAEDTAVYFCARRYSRASGWYDLWGQGTLVTVSS
VL: EIVMTQSPSTLSASVGDRVIITCQASQSISSYLAWYQQKPGKAPKLLIYAHSTLASGVPSRFSGSGSGAEFTLTISSLQPDDFATYYCQSYSYSSGIDYGDVFGQGTKLTVL
notes: IgG
As for B9, the binding result is “binds”.

B10: MYT11003 (antibody, V domains shown)
VH: EVQLVESGGGLVQPGGSLRLSCTASGFSLSSYAMGWVRQAPGKGLEWVGFINAGGNTYYANWAKGRFTISRDTSKNTVYLQMNSLRAEDTAVYFCARRYSRASGWYDLWGQGTLVTVSS
VL: EIVMTQSPSTLSASVGDRVIITCQASQSISSYLAWYQQKPGKAPKLLIYHASTLASGVPSRFSGSGSGAEFTLTISSLQPDDFATYYCQSYSYSSGIDYGDVFGQGTKLTVL
notes: IgG
Turning to B10, the binding result is reported as “binds”.

B11: MYT11018 (antibody, V domains shown)
VH: EVQLVESGGGLVQPGGSLRLSCTASGFSLSSYAMGWVRQAPGKGLEWVGFINAGGNTYYANWAKGRFTISRDTSKNTVYLQMNSLRAEDTAVYFCARRYSRASGWYDLWGQGTLVTVSS
VL: EIVMTQSPSTLSASVGDRVIITCQASQSISSYLAWYQQKPGKAPKLLIYAASTLASGVPSRFSGSGSGAEFTLTISSLQPDDFATYYCQSYSYSSGHDYGDVFGQGTKLTVL
notes: IgG
For the molecule B11, the binding result is “binds”.

B12: MYT11012 (antibody, V domains shown)
VH: EVQLVESGGGLVQPGGSLRLSCTASGFSLSSYAMGWVRQAPGKGLEWVGFINAGGNTYYANWAKGRFTISRDTSKNTVYLQMNSLRAEDTAVYFCARRYSRASGWYDLWGQGTLVTVSS
VL: EIVMTQSPSTLSASVGDRVIITCQASQSISSYLAWYQQKPGKAPKLLIYAASTLASGVPSRFSGSGSGAEFTLTISSLQPDDFATYYCQSHSYSSGIDYGDVFGQGTKLTVL
notes: IgG
Regarding B12, the binding result is recorded as “binds”.

B13: MYT11000 (antibody, V domains shown)
VH: EVQLVESGGGLVQPGGSLRLSCTASGFSLSSYAMGWVRQAPGKGLEWVGFINAGGNTYYANWAKGRFTISRDTSKNTVYLQMNSLRAEDTAVYFCARRYSRASGWYDLWGQGTLVTVSS
VL: EIVMTQSPSTLSASVGDRVIITCQASQSISSHLAWYQQKPGKAPKLLIYAASTLASGVPSRFSGSGSGAEFTLTISSLQPDDFATYYCQSYSYSSGIDYGDVFGQGTKLTVL
notes: IgG
As for B13, the binding result is recorded as “binds”.

B14: MYT10998 (antibody, V domains shown)
VH: EVQLVESGGGLVQPGGSLRLSCTASGFSLSSYAMGWVRQAPGKGLEWVGFINAGGNTYYANWAKGRFTISRDTSKNTVYLQMNSLRAEDTAVYFCARRYSRASGWYDLWGQGTLVTVSS
VL: EIVMTQSPSTLSASVGDRVIITCQASQSIHSYLAWYQQKPGKAPKLLIYAASTLASGVPSRFSGSGSGAEFTLTISSLQPDDFATYYCQSYSYSSGIDYGDVFGQGTKLTVL
notes: IgG
As for B14, the binding result is “binds”.

B15: MYT11006 (antibody, V domains shown)
VH: EVQLVESGGGLVQPGGSLRLSCTASGFSLSSYAMGWVRQAPGKGLEWVGFINAGGNTYYANWAKGRFTISRDTSKNTVYLQMNSLRAEDTAVYFCARRYSRASGWYDLWGQGTLVTVSS
VL: EIVMTQSPSTLSASVGDRVIITCQASQSISSYLAWYQQKPGKAPKLLIYAASHLASGVPSRFSGSGSGAEFTLTISSLQPDDFATYYCQSYSYSSGIDYGDVFGQGTKLTVL
notes: IgG
For the molecule B15, the binding result is on record as “binds”.

B16: MYT11021 (antibody, V domains shown)
VH: EVQLVESGGGLVQPGGSLRLSCTASGFSLSSYAMGWVRQAPGKGLEWVGFINAGGNTYYANWAKGRFTISRDTSKNTVYLQMNSLRAEDTAVYFCARRYSRASGWYDLWGQGTLVTVSS
VL: EIVMTQSPSTLSASVGDRVIITCQASQSISSYLAWYQQKPGKAPKLLIYAASTLASGVPSRFSGSGSGAEFTLTISSLQPDDFATYYCQSYSYSSGIDYHDVFGQGTKLTVL
notes: IgG
Consider B16, for which the binding result was “binds”.

B17: MYT11001 (antibody, V domains shown)
VH: EVQLVESGGGLVQPGGSLRLSCTASGFSLSSYAMGWVRQAPGKGLEWVGFINAGGNTYYANWAKGRFTISRDTSKNTVYLQMNSLRAEDTAVYFCARRYSRASGWYDLWGQGTLVTVSS
VL: EIVMTQSPSTLSASVGDRVIITCQASQSISSYHAWYQQKPGKAPKLLIYAASTLASGVPSRFSGSGSGAEFTLTISSLQPDDFATYYCQSYSYSSGIDYGDVFGQGTKLTVL
notes: IgG
Consider B17, for which the binding result is “binds”.

B18: MYT11093 (antibody, V domains shown)
VH: EVQLVESGGGLVQPGGSLRLSCTASGLSLSSYWMSWVRQAPGKGLEWVGVISAGGNTYYANWAKGRFTISRDTSKNTVYLQMNSLRAEDTAVYFCARGDDGYTNAAYVSNLWGQGTLVTVSS
VL: EIVMTQSPSTLSASVGDRVIITCQASQSISSWLSWYQQKPGKAPKLLIYKASTLASGVPSRFSGSGSGAEFTLTISSLQPDDFATYYCQSYHDSTTIAFGQGTKLTVL
notes: IgG
On to B18, for which the binding result is recorded as “binds”.

(Values after patent publication US20260209386A1 (MYTHIC THERAPEUTICS, published 2026).)
